Series [1] addresses mCcd1 DIX domain L402A (mouse).
For series [2], the target named is mCcd1 DIX domain R400A (mouse).
Series [3] concerns the target mCcd1 DIX domain D399A (mouse).
The target in another series is T1, mCcd1 DIX domain L402A.
T1 chain: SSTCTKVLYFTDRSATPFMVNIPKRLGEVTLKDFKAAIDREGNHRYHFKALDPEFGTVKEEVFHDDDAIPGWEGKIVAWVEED
Briefly: dynamic light scattering. The note with it: chain shown with the change;; parent: est. 4.4; read off a plot.

Another series deals with T2, mCcd1 DIX domain F397A.
T2 chain: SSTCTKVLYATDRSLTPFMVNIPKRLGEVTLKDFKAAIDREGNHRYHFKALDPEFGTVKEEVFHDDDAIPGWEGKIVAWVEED
In words: dynamic light scattering. To be noted: chain shown with the change;; parent: est. 4.4; read off a plot.

For a further series, the target named is T3, mCcd1 DIX domain W466A.
T3 chain: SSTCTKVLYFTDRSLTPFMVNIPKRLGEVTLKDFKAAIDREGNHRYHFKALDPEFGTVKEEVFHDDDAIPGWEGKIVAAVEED
In words: dynamic light scattering. To be noted: chain shown with the change;; parent: est. 4.4; read off a plot.

In another series the target is T4, MBP-fused zCcd1 DIX (zebrafish, UniProt Q804T6 356-438).
T4 construct: DIX domain of zebrafish Ccd1, cDNA Gene ID 360137; The uncleaved precursor of m2; also called MBP-fused zCcd1 DIX domain; source: E. coli (plasmid pOPINM), purified (amylose resin)
T4 sequence (looked up): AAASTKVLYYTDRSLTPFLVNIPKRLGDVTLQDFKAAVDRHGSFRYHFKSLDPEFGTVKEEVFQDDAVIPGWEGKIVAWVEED
In words: pull-down; MBP-fused mCcd1, zCcd1 or Dvl1 DIX (0.8 mM) held on amylose resin, Axin DIX or Dvl1 DIX free; pull-down buffer, 277 K (Figures 5f, 5g). The note with it: both partners purified.

Series [4] deals with the molecule itself. In words: SEC; gel filtration chromatography of the DIX domains without carrier (Figures 1b and 4e).

In series [1], “mCcd1 DIX domain L402A (domain or fragment)” yielded a TCF-dependent transcription (TOPflash luciferase reporter, HeLa cells transfected with FLAG-tagged mCcd1 BalphaL L402A), compared to the wild type of 1.5 fold.

Turning to “mCcd1 DIX domain R400A (domain or fragment)”, the TCF-dependent transcription (TOPflash luciferase reporter, HeLa cells transfected with FLAG-tagged mCcd1 BalphaL R400A), compared to the wild type in series [2] came out at 1.4 fold. “mCcd1 DIX domain D399A (domain or fragment)” showed a TCF-dependent transcription (TOPflash luciferase reporter, HeLa cells transfected with FLAG-tagged mCcd1 BalphaL D399A), compared to the wild type in series [3] of 1.3 fold.

B1: mouse Coiled-coil-DIX1 (mCcd1) DIX domain L402A (protein)
chain: SSTCTKVLYFTDRSATPFMVNIPKRLGEVTLKDFKAAIDREGNHRYHFKALDPEFGTVKEEVFHDDDAIPGWEGKIVAWVEED
In the case of B1, the other: DLS peak size (diameter) of homopolymer in the series with mCcd1 DIX domain L402A amounted to 7.3 nm.

B2: mouse Coiled-coil-DIX1 (mCcd1) DIX domain F397A (protein)
chain: SSTCTKVLYATDRSLTPFMVNIPKRLGEVTLKDFKAAIDREGNHRYHFKALDPEFGTVKEEVFHDDDAIPGWEGKIVAWVEED
In the case of B2, the other: DLS peak size (diameter) of homopolymer with mCcd1 DIX domain F397A came to 5.5 nm.

B3: mouse Coiled-coil-DIX1 (mCcd1) DIX domain W466A (protein)
chain: SSTCTKVLYFTDRSLTPFMVNIPKRLGEVTLKDFKAAIDREGNHRYHFKALDPEFGTVKEEVFHDDDAIPGWEGKIVAAVEED
Turning to B3, in the series with mCcd1 DIX domain W466A, the other: DLS peak size (diameter) of homopolymer was found to be 8.2 nm.

B4: Axin DIX domain (domain or fragment, UniProt O70239 745-827, looked up)
chain: CDSIVVAYYFCGEPIPYRTLVRGRAVTLGQFKELLTKKGSYRYYFKKVSDEFDCGVVFEEVREDEAILPVFEEKIIGKVEKVD
notes: DIX domain of Axin; source: E. coli, expressed as a fusion construct with GST or MBP, purified
B4: the “fold binding relative to MBP-fused mCcd1 DIX” value in the series with MBP-fused zCcd1 DIX came out at 1.53 fold.

B5: zebrafish Coiled-coil-DIX1 (zCcd1) DIX domain (domain or fragment, UniProt Q804T6 356-438, looked up)
chain: AAASTKVLYYTDRSLTPFLVNIPKRLGDVTLQDFKAAVDRHGSFRYHFKSLDPEFGTVKEEVFQDDAVIPGWEGKIVAWVEED
notes: DIX domain of zebrafish Coiled-coil-DIX1 (zCcd1), residues 356-438, cDNA Gene ID 360137; also called zCcd DIX domain; Zebrafish CCD1; source: E. coli (plasmid pOPINM), purified (amylose resin, HRV3C cleavage, HiTrap Q)
As a reminder, the stoichiometry N is the number of molecules, sites or subunits per partner or assembly. Take B5: the “stoichiometry N” value in series [4] was determined as 2.
